# Assay results reported in US20250361274A1, “PEPTIDE AND PEPTIDE-CONTAINING AGENT” (PEPTIDREAM INC., priority 2022, published 2025).
# Square brackets hold non-standard residues; d marks the D form. Ends that are not written are not given here. 3Pal(6-Ph) = N[C@@H](Cc1ccc(-c2ccccc2)nc1)C(=O)O; Phe(4-COOH) = N[C@@H](Cc1ccc(C(=O)O)cc1)C(=O)O; NMePhe(4-Me) = CN[C@@H](Cc1ccc(C)cc1)C(=O)O; Bip = N[C@@H](Cc1ccc(-c2ccccc2)cc1)C(=O)O; Phe(4-F) = N[C@@H](Cc1ccc(F)cc1)C(=O)O; cisHyp = O=C(O)[C@@H]1C[C@H](O)CN1; NMeF = CN[C@@H](Cc1ccccc1)C(=O)O; Aad = N[C@@H](CCCC(=O)O)C(=O)O; Cha = N[C@@H](CC1CCCCC1)C(=O)O; Abu = CC[C@H](N)C(=O)O; βAla = NCCC(=O)O
# What was measured:
# BMP4 = target: T1, BMP4 (Homo sapiens, UniProt P12644); assay: BMP4 signal transduction inhibitory activity: SMAD1 phosphorylation by BMP4 stimulus, AlphaLISA SureFire, A549 cells; format: cell-based; conditions: BMP4 0.2 nM stimulus; peptide conc. in assay 0.2, 2, 20 nM
# T1 sequence (P12644 293-408): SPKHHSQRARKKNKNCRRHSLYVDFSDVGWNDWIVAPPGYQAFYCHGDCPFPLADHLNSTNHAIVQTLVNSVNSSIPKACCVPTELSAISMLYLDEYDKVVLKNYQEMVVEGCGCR
# BMP7 = target: T2, BMP7 (Homo sapiens, UniProt P18075); assay: BMP7 signal transduction inhibitory activity: SMAD1 phosphorylation by BMP7 stimulus, A549 cells; format: cell-based; conditions: BMP7 10 nM stimulus; peptide conc. in assay 1, 10, 100 nM
# T2 sequence (P18075 293-431): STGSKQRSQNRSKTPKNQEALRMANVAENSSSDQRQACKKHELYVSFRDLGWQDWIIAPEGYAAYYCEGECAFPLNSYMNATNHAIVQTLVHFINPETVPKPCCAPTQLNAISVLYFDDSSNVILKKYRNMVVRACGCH
# Summary of the method: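 SMAD1 phosphorylation readout in A549 cells stimulated with BMP7 (10 nM). Peptides were tested at three levels (e.g. 1/10/100, 10/100/1,000, 100/300/1,000, 10/30/90 nM) or at eight points, 1/3 steps, from 100 or 1,000 nM. Recombinant Noggin served as positive control at matching concentrations.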
Substance,aLISA BMP4 (0.2 nM) % inh (BMP4),aLISA BMP7 (10 nM) % inh (BMP7)
395 ([Phe(4-F)]G[NMePhe(4-Me)]G[Bip]GDD[Cha]A[NMeF]LHCG-NH2; not fully specified) [compound 395],A (showed less than 30% of inhibitory activity in 2 nM-peptide-addition zone and showed 30% or more of inhibitory activity in 20 nM-addition zone),D (showed less than 30% of inhibitory activity in 10 nM-addition zone and showed 30% or more of inhibitory activity in 100 nM-addition zone)
396 ([Phe(4-F)]G[NMeF]G[Bip]GDD[Cha]A[NMePhe(4-Me)]LHCG-NH2; not fully specified) [compound 396],A (showed less than 30% of inhibitory activity in 2 nM-peptide-addition zone and showed 30% or more of inhibitory activity in 20 nM-addition zone),C (showed less than 30% of inhibitory activity in a zone to which the peptide was added in an amount of 1 nM and showed 30% or more of inhibitory activity in 10 nM-addition zone)
397 (FG[NMePhe(4-Me)]G[Bip]GDD[Cha]A[NMePhe(4-Me)]LHCG-NH2; not fully specified) [compound 397],ND (the inhibitory activity was less than 30% at the maximum concentration evaluated),D (showed less than 30% of inhibitory activity in 10 nM-addition zone and showed 30% or more of inhibitory activity in 100 nM-addition zone)
398 ([Phe(4-F)]G[NMePhe(4-Me)]G[Bip]GDD[Cha]A[NMePhe(4-Me)]LHCG-NH2; not fully specified) [compound 398],A (showed less than 30% of inhibitory activity in 2 nM-peptide-addition zone and showed 30% or more of inhibitory activity in 20 nM-addition zone),D (showed less than 30% of inhibitory activity in 10 nM-addition zone and showed 30% or more of inhibitory activity in 100 nM-addition zone)
399 (FG[NMeF]G[Bip]GDE[Cha]Q[NMeF]L[Abu]CG-NH2; not fully specified) [compound 399],ND (the inhibitory activity was less than 30% at the maximum concentration evaluated),C (showed less than 30% of inhibitory activity in a zone to which the peptide was added in an amount of 1 nM and showed 30% or more of inhibitory activity in 10 nM-addition zone)
400 (FG[NMeF]G[Bip]GDE[Cha]Q[NMeF]L[cisHyp]CG-NH2) [compound 400],ND (the inhibitory activity was less than 30% at the maximum concentration evaluated),C (showed less than 30% of inhibitory activity in a zone to which the peptide was added in an amount of 1 nM and showed 30% or more of inhibitory activity in 10 nM-addition zone)
401 (FG[NMeF]G[Bip]GDE[Cha][Aad][NMeF]L[Phe(4-COOH)]CG-NH2; not fully specified) [compound 401],ND (the inhibitory activity was less than 30% at the maximum concentration evaluated),C (showed less than 30% of inhibitory activity in a zone to which the peptide was added in an amount of 1 nM and showed 30% or more of inhibitory activity in 10 nM-addition zone)
402 (FG[NMeF]G[Bip]GDE[Cha][Aad][NMeF]L[Abu]CG-NH2; not fully specified) [compound 402],ND (the inhibitory activity was less than 30% at the maximum concentration evaluated),C (showed less than 30% of inhibitory activity in a zone to which the peptide was added in an amount of 1 nM and showed 30% or more of inhibitory activity in 10 nM-addition zone)
403 (FG[NMeF]G[Bip]GDE[Cha][Aad][NMeF]L[cisHyp]CG-NH2; not fully specified) [compound 403],ND (the inhibitory activity was less than 30% at the maximum concentration evaluated),C (showed less than 30% of inhibitory activity in a zone to which the peptide was added in an amount of 1 nM and showed 30% or more of inhibitory activity in 10 nM-addition zone)
404 (FG[NMeF]G[Bip]GDE[Cha]Q[NMeF]L[Phe(4-COOH)]C-NH2; not fully specified) [compound 404],ND (the inhibitory activity was less than 30% at the maximum concentration evaluated),C (showed less than 30% of inhibitory activity in a zone to which the peptide was added in an amount of 1 nM and showed 30% or more of inhibitory activity in 10 nM-addition zone)
405 (FG[NMeF]G[Bip]GDE[Cha]Q[NMeF]L[Phe(4-COOH)]CG; not fully specified) [compound 405],ND (the inhibitory activity was less than 30% at the maximum concentration evaluated),D (showed less than 30% of inhibitory activity in 10 nM-addition zone and showed 30% or more of inhibitory activity in 100 nM-addition zone)
406 (FG[NMeF]G[Bip]GDE[Cha]Q[NMeF]L[Phe(4-COOH)]C[βAla]) [compound 406],ND (the inhibitory activity was less than 30% at the maximum concentration evaluated),D (showed less than 30% of inhibitory activity in 10 nM-addition zone and showed 30% or more of inhibitory activity in 100 nM-addition zone)
407 (FG[NMeF]G[Bip]GDE[Cha]Q[NMeF]L[Phe(4-COOH)]C[βAla][dE]) [compound 407],ND (the inhibitory activity was less than 30% at the maximum concentration evaluated),C (showed less than 30% of inhibitory activity in a zone to which the peptide was added in an amount of 1 nM and showed 30% or more of inhibitory activity in 10 nM-addition zone)
408 (FG[NMeF]G[Bip]GDE[Cha][Aad][NMeF]L[Phe(4-COOH)]C-NH2) [compound 408],ND (the inhibitory activity was less than 30% at the maximum concentration evaluated),C (showed less than 30% of inhibitory activity in a zone to which the peptide was added in an amount of 1 nM and showed 30% or more of inhibitory activity in 10 nM-addition zone)
409 (FG[NMeF]G[Bip]GDE[Cha][Aad][NMeF]L[Phe(4-COOH)]C[βAla][dE]) [compound 409],ND (the inhibitory activity was less than 30% at the maximum concentration evaluated),D (showed less than 30% of inhibitory activity in 10 nM-addition zone and showed 30% or more of inhibitory activity in 100 nM-addition zone)
410 (FG[NMeF]G[3Pal(6-Ph)]GDE[Cha][Aad][NMeF]L[Phe(4-COOH)]C-NH2; not fully specified) [compound 410],ND (the inhibitory activity was less than 30% at the maximum concentration evaluated),D (showed less than 30% of inhibitory activity in 10 nM-addition zone and showed 30% or more of inhibitory activity in 100 nM-addition zone)
411 (FG[NMeF]G[3Pal(6-Ph)]GDE[Cha][Aad][NMeF]L[Phe(4-COOH)]C[βAla][dE]) [compound 411],ND (the inhibitory activity was less than 30% at the maximum concentration evaluated),D (showed less than 30% of inhibitory activity in 10 nM-addition zone and showed 30% or more of inhibitory activity in 100 nM-addition zone)
412 ([Phe(4-F)]G[NMeF]G[3Pal(6-Ph)]GDE[Cha][Aad][NMePhe(4-Me)]L[Phe(4-COOH)]C-NH2; not fully specified) [compound 412],ND (the inhibitory activity was less than 30% at the maximum concentration evaluated),D (showed less than 30% of inhibitory activity in 10 nM-addition zone and showed 30% or more of inhibitory activity in 100 nM-addition zone)
